According to the supplement of paper PMC9170038:

Tested on: MS2 coat protein
Test: apparent KD of MS2 coat protein; designed switch direction (-1 OFF switch, 1 ON switch): 1; higher = weaker reporter binding
Procedure, shortened: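 The reported apparent KD is a per-design median over clusters, from curve fits of normalised cluster fluorescence. Protein titrations used SNAP-549-labelled MS2 coat protein, doubled from 0.7 or 1.5 nM to 3 µM, in Tris-HCl pH 7.5 buffer with KCl, MgCl2, BSA, DTT, tRNA and Tween-20, with no input, 200 uM small-molecule ligand, or an oligonucleotide input. The RNA switches were transcribed on Illumina chips by stalled E. coli RNA polymerase.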

[1] = input ligand: microRNA oligo, concentration not stated
[2] = Eterna round: R95, input ligand: FMN 200 uM
[3] = Eterna round: R95, input ligand: microRNA oligo, concentration not stated
[4] = Eterna round: R95, input ligand: none

| Sequence | apparent KD of MS2 coat protein (input ligand: FMN 200 uM) | apparent KD of MS2 coat protein [1] | apparent KD of MS2 coat protein (input ligand: none) | apparent KD of MS2 coat protein [2] | apparent KD of MS2 coat protein [3] | apparent KD of MS2 coat protein [4] |
| --- | --- | --- | --- | --- | --- | --- |
| AUUAUUUAUGCAGGAUAUGAUUAACAUGAGGAUCACCCAUGUGGUGUUGUGAGUAAGGAGAGUGAUCAGAAGGGCAUUUAUUUU [JMF's solution 47] (Eterna round: R96, puzzle: Same State NG 2) | 0.926 µM | 0.559 µM | 0.669 µM | – | – | – |
| AGCUAUUACGAAGGAUAUUGUGACAUGAGGAUCACCCAUGUUUGCAUGAUUAAUUGUGAUCACGUCGAGAAGGUUGUACUAACA [SameState NG2 #31] (Eterna round: R96, puzzle: Same State NG 2) | 0.0262 µM | 0.0209 µM | 0.0295 µM | – | – | – |
| GGGCUCUACGGAGGAUAUUCAACACAUGAGGAUCACCCAUGUCAGCCUCCCUGAUCCAGGGAAGCGAAGAAGGCUGCGAGGACG [Eternabot solution 35] (Eterna round: R96, puzzle: Same State NG 2) | 0.0291 µM | 0.0218 µM | 0.0345 µM | – | – | – |
| GUUACAUGAGGAUCACCCAUGUAUGUGUGGGAGUAAGUGUCUUAGGAUAUCUAUGAUUUAAUUUGAGAGAAGGAAGAUUGUUGU [JMF's solution 87] (Eterna round: R96, puzzle: Same State NG 3) | 0.0888 µM | 0.0764 µM | 0.102 µM | – | – | – |
| GGAAGGAAGUCAGGAUAUGAAUGGAAAGUACAUGAGGAUCACCCAUGUUAUGGAGGAAGGAAACGUUAGAAGGGAUAAGGAAGG [AK SSNG2-V2-1.1] (Eterna round: R96, puzzle: Same State NG 2) | 0.0678 µM | 0.0452 µM | 0.0637 µM | – | – | – |
| GCUCGACGUAUUGUCUACAUGAGGAUCACCCAUGUAGGUGCGGAGGAUAUCUACGUGUUUCAUGUAGAGAAGGUCGUGUCGAGC [SameState NG3 #90] (Eterna round: R96, puzzle: Same State NG 3) | 0.056 µM | 0.155 µM | 0.177 µM | – | – | – |
| UCUCGGGUCGUAGGAUAUGUAGGAUAUGUACAUGAGGAUCACCCAUGUCUACCAGAGACAGAAGGACAGAAGGACGAGCCACUC [pwkr ssNG2 2FMN 1F5s.5] (Eterna round: R96, puzzle: Same State NG 2) | 0.0252 µM | 0.0422 µM | 0.0555 µM | – | – | – |
| AUUAAUAAUCGAGGAUAUCACGUCGUUUAGACGUGAGAAGGCGAUCAUAACAUGAGGAUCACCCAUGUAUUACAUGAAGUUAAU [SSNG1/4-B3] (Eterna round: R96, puzzle: Same State NG 1) | 0.0378 µM | 0.0263 µM | 0.0393 µM | – | – | – |
| GUAGCAUACCGAGGAUAUUCAUACAUGAGGAUCACCCAUGUUAAUAGGCCACAUUAGUGGCCUUGGGAGAAGGCGGAAUGCUAC [Xeonanis - 20 Mod46] (Eterna round: R96, puzzle: Same State NG 2) | 0.0141 µM | 0.0107 µM | 0.0166 µM | – | – | – |
| UUAAUGAUGAAAGGAUAUACAUGAGGAAUUCUCGUAGAAGGUUCAUGACAUGAGGAUCACCCAUGUAUCGCUCAGAAGAGCGUA [Mat - Same State NG 1 - JL mod - D29] (Eterna round: R96, puzzle: Same State NG 1) | 0.0474 µM | 0.036 µM | 0.0854 µM | – | – | – |
| GGAGCCGGCCUAGGAUAUUUCAUAAAAGAACAUGAGGAUCACCCAUGUAGGCCAGAAGGCCUUGGGAAGAAGGAGGUCGGCUCC [Loop Effect - G28] (Eterna round: R96, puzzle: Same State NG 2) | 0.0144 µM | 0.0224 µM | 0.0318 µM | – | – | – |
| AUGCCAAAUGGAGGAUAUGGAGCCUUAUUGGCUCCAGAAGGUCGGACAUGAGGAUCACCCAUGUGGCAGUGGUCUAAUGACCAC [Eli NG1ss - 42] (Eterna round: R96, puzzle: Same State NG 1) | 0.242 µM | 0.293 µM | 0.463 µM | – | – | – |
| AUAAGGCAAGCUUUUUUCUCGUAGUGUAAACAUGAGGAUCACCCAUGUGCCCACCCUAGAUCUUUGGAUCGCAGAAC [Atrageus] (puzzle: Sensor for hsa-mir-208a) | – | – | – | 0.0228 µM | 0.0168 µM | 0.0268 µM |
| GGAUGAUUAAUAGGAUAUUAUUUGUAAAUUGGUUAAGAAGGAUUAAUGAUUUAAACGACCUGUUACAUGAGGAUCACCCAUGUU [JR_SSNG1_Sub090] (Eterna round: R96, puzzle: Same State NG 1) | – | 0.0332 µM | – | – | – | – |
| CUCCAUUGGGUAGGAUAUCUAGGAUAUGGGAAAGACUAAGUCUGUAGGUCACCUAACCCAGAUGGAGAGAAGGACCCAACACUC [pwkr ssNG2 2FMN + F9.40] (Eterna round: R96, puzzle: Same State NG 2) | 0.0151 µM | 0.0152 µM | 0.0232 µM | – | – | – |
| UGUUGUAUUACAGGAUAUCUAUGAUUUGUAUUUAGAGAAGGGUAUUCACAUGAGGAUCACCCAUGUAUAUACGAGGAAGUUGUG [JMF's solution 62] (Eterna round: R96, puzzle: Same State NG 1) | 0.0675 µM | 0.0485 µM | 0.0623 µM | – | – | – |
| AGAUCAUGACGAGGAUAUGGAACAUGAGGAUCACCCAUGUAUGUUCCAUAACGCGAAUAAAGAAUCCAGAAGGCGUCGUGAUCA [Mat - Same State NG 2 - JL mod - D31] (Eterna round: R96, puzzle: Same State NG 2) | 0.0131 µM | 0.0525 µM | 0.0855 µM | – | – | – |
| AAAAGACAGGCAGGAUAUGGGCCUGGCUCUGAUAUCAGAGCCUACACAUGAGGAUCACCCAUGUCCCAGAAGGGCCUGUAGAAG [Cetiriqu] (Eterna round: R96, puzzle: Same State NG 2) | 0.0194 µM | 0.0653 µM | 0.0791 µM | – | – | – |
| UGUCCAGCCUGAGCUGGACAAAAGCAUGUACAUGAGGAUCACCCAUGUUCAUGUACAAGCUUUUUGCUCGUCUUACG [salish99_208a_r3_082] (puzzle: Sensor for hsa-mir-208a) | – | – | – | 0.763 µM | 0.015 µM | 0.69 µM |
| CUGUAUCGCGGAGGAUAUGGGCUGAGACCAGGGCAACCCUGGUCAACAUGAGGAUCACCCAUGUCCCAGAAGGCCGCAAUGCUA [Esatanla] (Eterna round: R96, puzzle: Same State NG 2) | 0.0347 µM | 0.128 µM | 0.137 µM | – | – | – |
| UGGCUCAGACGAGGAUAUACGUGGUCACAUGAGGAUCACCCAUGUCUCGAGCUUCGGCUCGAGGCGUAGAAGGCGUCUGAGCCU [SSNG2/6-A3] (Eterna round: R96, puzzle: Same State NG 2) | 0.112 µM | 0.133 µM | 0.151 µM | – | – | – |
| UUGUUUCACGUAGGAUAUCGACCUACAUGAGGAUCACCCAUGUUUUUGAAUAGAUUUUUUUGUUACGAGAAGGACGUUAUGUAU [JR_SSNG2_Sub065] (Eterna round: R96, puzzle: Same State NG 2) | 0.0593 µM | 0.104 µM | 0.168 µM | – | – | – |
| GCUCGAUGAAAGUCCUACAUGAGGAUCACCCAUGUACGUGGGCAGGAUAUCUACAUGCAGAAUGUAGAGAAGGGCCCGUCGAGC [SameState NG3 #58] (Eterna round: R96, puzzle: Same State NG 3) | 0.0151 µM | 0.0165 µM | 0.0174 µM | – | – | – |
| AGCCUGAGUCGAGGAUAUUAUGGAUCCUUUAAUACAUGAGGAUCACCCAUGUAAUUAAUUAUACAUGAGAAGGUGACUCAGGCA [SSNG2/11-B1] (Eterna round: R96, puzzle: Same State NG 2) | – | 0.186 µM | – | – | – | – |
| GUUACAUGAGGAUCACCCAUGUAUGUGUGGGAGUAAGUGUCUUAGGAUAUCUAUGAUUUGAUUUAAGAGAAGGAAGAUUGUUGU [JMF's solution 78] (Eterna round: R96, puzzle: Same State NG 3) | 0.122 µM | 0.0809 µM | 0.11 µM | – | – | – |
| UAUUUAAUCAUAGGAUAUAGUGUGAAAUUUGGACUAGAAGGAUGUAACAUGAGGAUCACCCAUGUGGUAAGUGGGACACAGUGU [JR_SSNG1_Sub095] (Eterna round: R96, puzzle: Same State NG 1) | 0.164 µM | 0.0694 µM | 0.141 µM | – | – | – |
| AUGCCAAAAUGAGGAUAUGGAGCCUUAUUGGCUCCAGAAGGCGUGACAUGAGGAUCACCCAUGUGGCAGUGGUCUAAUGACCAC [Eli NG1ss - 44] (Eterna round: R96, puzzle: Same State NG 1) | 0.0219 µM | 0.0533 µM | 0.077 µM | – | – | – |
| GCUACCAAUGAAGCCAACAUGAGGAUCACCCAUGUAUGUUGGUAGGAUAUCGAUUGCAAAGCGAUCGAGAAGGGCUAAGGUAGC [Mat - Same State NG 3 - JL Mod - D82] (Eterna round: R96, puzzle: Same State NG 3) | 0.0519 µM | 0.0596 µM | 0.0545 µM | – | – | – |
| AUACAUGAGGAUCACCCAUGUAAUUAAUUAACUAGUAAGAUCUAGGAUAUCAGCUCGAUUAGAGCUGAGAAGGAGAUCACAUGU [SSNG3/21-A2] (Eterna round: R96, puzzle: Same State NG 3) | – | 0.0293 µM | – | – | – | – |
| UGAAUAGUGAUAGGAUAUACAUGAGGAAUCCUCGUAGAAGGAUCACGACAUGAGGAUCACCCAUGUAGCCGUCGAAAGACGGCA [Mat - Same State NG 1 - JL mod - D61] (Eterna round: R96, puzzle: Same State NG 1) | 0.924 µM | 0.0861 µM | 0.192 µM | – | – | – |
